According to the supplement of paper PMC10126150:
± gives the standard deviation of the averaged measurements.

Test system: ATP
Test: switch fluorescence ratio, 500 uM ATP over buffer (Cy3 cluster intensity, sum of 5 cycles each) (fold (ratio)); higher = stronger signal-on switching upon ATP binding; sequences stand for … in TCGTCGGCAGCGTCAGATGTGTATAAGAGACAGTTTTTTTTTTTTTTTTTTTTTTTTT…TC
Conditions: aptamer strand: ATP DNA aptamer (quencher-CACCTGGGGGAGTATTGCGGAGGAAGG + anchor), 100 nM annealed; ATP concentration: 500 uM
Outline: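 Switching-strand clusters labelled with Cy3 on a modified Illumina MiSeq flow-cell were annealed to 100 nM quencher-labelled ATP aptamer, imaged in selection buffer, and re-imaged after 15 min with 500 uM ATP at 22 °C. This was done over five cycles with NaOH stripping and re-annealing in between. The fluorescence ratio is summed target-cycle over summed buffer-cycle Cy3 intensity per cluster, averaged per switch-domain sequence, excluding clusters outside 100-1000 RFU.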
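Also: ATP exposure 15 min at 22 °C before imaging.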

Sequence	switch fluorescence ratio
CGTATAAATC	1.01 ± 0.043
CGTATACTGA	1.01 ± 0.055
CGTATATGGC	1.1 ± 0.14
CGTATCTCTA	0.989 ± 0.01
CGTATGCCGG	0.9999 ± 0.0091
CGTATGGCCA	1.0198 ± 0.00072
CGTATTGAGA	0.968 ± 0.057
CGTATTGCGT	1.01 ± 0.025
CGTATTTATT	1.01 ± 0.021
CGTATTTGAG	1 ± 0.037
CGTATTTGGG	0.999 ± 0.034
CGTATTTGTA	1.01 ± 0.028
CGTATTTTTT	1.01 ± 0.032
CGTCACGGGA	1.05 ± 0.036
CGTCATATGC	1.29 ± 0.073
CGTCATGCTC	1.19 ± 0.036
CGTCCACAGG	2.96 ± 0.092
CGTCGACCGG	1 ± 0.022
CGTCGAGGGA	1.1 ± 0.12
CGTCGCAGTG	1.03 ± 0.052
CGTCGTATAA	1.02 ± 0.021
CGTCGTGATA	1.2 ± 0.014
CGTCTAATAG	1.18 ± 0.03
CGTCTGAATG	0.9983 ± 0.0024
CGTCTGGGCG	0.957 ± 0.097

Sequence	switch fluorescence ratio
CGTCTGGTGC	1.03 ± 0.029
CGTCTGTCGG	1.03 ± 0.019
CGTCTTTTAT	0.9935 ± 0.0043
CGTCTTTTGG	1.02 ± 0.025
CGTGAAAGCG	0.9683 ± 0.005
CGTGAAGGCG	0.952 ± 0.024
CGTGAAGGGT	0.992 ± 0.013
CGTGACGGTA	1.042 ± 0.0014
CGTGAGAGTG	0.9781 ± 0.0021
CGTGATGATT	0.9809 ± 0.0078
CGTGATGGGG	1.04 ± 0.071
CGTGATTTGG	1.006 ± 0.0065
CGTGCAAATT	0.985 ± 0.026
CGTGCACAAA	0.9815 ± 0.0059
CGTGCCCGTG	1 ± 0.017
CGTGCGGGTG	1.03 ± 0.006
CGTGCGTGTA	1.02 ± 0.053
CGTGCTCTAC	1.5 ± 0.068
CGTGCTTTTC	1.15 ± 0.22
CGTGGAACGA	1.01 ± 0.058
CGTGGGAATT	0.977 ± 0.019
CGTGGGAGAG	0.983 ± 0.021
CGTGGGAGGC	1.04 ± 0.077
CGTGGGGAGG	1.05 ± 0.017
CGTGGGGCAC	1.01 ± 0.024

Sequence	switch fluorescence ratio
CGTGGGGGT	0.996 ± 0.035
CGTGGGGTTT	0.989 ± 0.022
CGTGGGTGGT	1.0181 ± 0.00048
CGTGGTAAGG	0.989 ± 0.026
CGTGGTGGG	0.968 ± 0.029
CGTGGTGGGA	0.9737 ± 0.0088
CGTGGTTGTC	0.9871 ± 0.0066
CGTGTAAGGG	0.974 ± 0.04
CGTGTAATGT	0.985 ± 0.048
CGTGTAATTT	0.993 ± 0.016
CGTGTACTTA	1.03 ± 0.01
CGTGTAGGAG	0.99262 ± 0.00056
CGTGTAGGTT	1.02 ± 0.021
CGTGTAGTTT	1.01 ± 0.036
CGTGTATATA	1.018 ± 0.0041
CGTGTATGG	1.016 ± 0.0031
CGTGTATGTG	0.969 ± 0.043
CGTGTATTCT	0.968 ± 0.034
CGTGTCTTGA	1.027 ± 0.0037
CGTGTGCCGA	1.01 ± 0.057
CGTGTGGGGT	1.01 ± 0.027
CGTGTGGTGG	0.944 ± 0.032
CGTGTGGTGT	1.03 ± 0.04
CGTGTTCTGG	0.994 ± 0.031
CGTGTTGGTA	0.987 ± 0.013

Sequence	switch fluorescence ratio
CGTGTTGTAC	1.13 ± 0.024
CGTGTTTGCC	1 ± 0.02
CGTGTTTTAG	1 ± 0.033
CGTTAATCTT	0.995 ± 0.049
CGTTAATTAC	1.38 ± 0.036
CGTTAGAATC	1.014 ± 0.0082
CGTTAGATGG	1.01 ± 0.011
CGTTAGTGCG	1 ± 0.025
CGTTCAACTC	1.04 ± 0.016
CGTTCTGTTT	1 ± 0.029
CGTTGAGGAA	0.9853 ± 0.0038
CGTTGCCGTT	1.06 ± 0.1
CGTTGCGCTG	1.01 ± 0.0069
CGTTGGCACG	0.997 ± 0.04
CGTTGGGTCC	0.987 ± 0.029
CGTTGGGTTT	1.03 ± 0.054
CGTTGGTCAG	1.02 ± 0.032
CGTTGGTGGT	0.99 ± 0.031
CGTTGTACTT	1.01 ± 0.052
CGTTGTAGGA	0.999 ± 0.016
CGTTGTAGGG	0.989 ± 0.01
CGTTGTCATC	1.01 ± 0.06
CGTTGTCATT	0.972 ± 0.036
CGTTGTCTAG	0.9713 ± 0.005
CGTTGTTAGC	0.992 ± 0.022
